Biological target: Nluc-NS2B (49-66) (named as Nluc-E66stop) (firefly; Dengue virus serotype 2 (DENV2)) [luciferase: P08659]
Sequence (P08659 whole entry): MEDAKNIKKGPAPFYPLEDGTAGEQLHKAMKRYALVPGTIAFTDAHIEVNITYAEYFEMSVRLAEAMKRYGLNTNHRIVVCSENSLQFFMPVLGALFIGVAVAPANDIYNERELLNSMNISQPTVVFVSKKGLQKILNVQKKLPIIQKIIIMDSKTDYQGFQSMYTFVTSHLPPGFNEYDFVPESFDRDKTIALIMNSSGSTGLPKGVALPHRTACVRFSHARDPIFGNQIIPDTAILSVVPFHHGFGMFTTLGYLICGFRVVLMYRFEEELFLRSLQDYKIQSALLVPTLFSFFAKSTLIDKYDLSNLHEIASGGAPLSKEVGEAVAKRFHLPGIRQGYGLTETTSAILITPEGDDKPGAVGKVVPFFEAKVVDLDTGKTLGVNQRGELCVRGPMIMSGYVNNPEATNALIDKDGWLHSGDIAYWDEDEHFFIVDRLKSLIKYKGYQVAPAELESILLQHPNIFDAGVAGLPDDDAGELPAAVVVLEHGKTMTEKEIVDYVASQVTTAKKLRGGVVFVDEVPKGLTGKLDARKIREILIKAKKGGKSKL

In the case of “His-tagged maltose-binding protein (MBP) fused to DENV2 NS3 protein (His-MBP-NS3) (from UniProt P14337 1476-1654) (enzyme)”, the affinity is reported as 2.5 µM.

— patent US20190160028A1
